According to patent publication US20190218553, “VON WILLEBRAND FACTOR (VWF)-TARGETING AGENTS AND METHODS OF USING THE SAME” (DUKE UNIVERSITY, published 2019):

Target: T1, von Willebrand factor (VWF) (Homo sapiens, UniProt P04275 P04275:764-2813)
Assay: filter; NB; 2 mM CaCl2, 37 C
Details: tags: factor VIII free human purified VWF, Haematologic Technologies Inc; label: 5'-32P
Procedure: (§1) Affinity constants (Kd values) were determined using double-filter nitrocellulose filter binding assays (Rusconi et al, Thromb. Haemost. $4:841-848 (2000)). All binding studies were performed in binding buffer F (20 mM HEPES, pH 7.4, 150 mM NaCl, 2 mM CaCl₂, and 0.01% BSA) at 37° C. Human purified VWF (factor VIII free) was purchased from Haematologic Technologies Inc. (Essex Junction, Vt.) and used in the double-filter nitrocellulose filter binding assay to determine the Kd of the aptamers. Briefly, RNA were end-labeled at the 5′ end with T4 polynucleotide kinase (New England Biolabs, Beverly, Mass.) and [γ³²P] ATP (Amersham Pharmacia Biotech, Piscataway, N.J.) (Fitzwater and Polisky, Methods Enzymol. 267:275-301 (1996)). End-labeled RNA was diluted in binding buffer F, heat denatured at 65° C. for 5 minutes, and subsequently equilibrated at 37° C. Direct binding was performed by incubating trace ³²P-RNA with varying concentrations of VWF protein in binding buffer F at 37° C. for 5 min. The fraction of the nucleic acid-protein complex which bound to the nitrocellulose membrane was quantified with a phosphorimager (Molecular Dynamics, Sunnyvale, Calif.). Non-specific binding of the radiolabeled nucleic acid was subtracted out of the binding such that only specific binding remained (Wong and Lohman, Proc. Natl. Acad. Sci. USA 90:5428-5432 (1993)).

Row | Binder | binding result
1 | ACGAAAUGGAAUCGUAAGAACCACAGACGUUUUUU (ssRNA, all 2'-OMe; 3' idT) [DTRI-022] | no binding

Same assay, conditions: tags: factor VIII free, Haematologic Technologies Inc; label: 5'-32P

Row | Binder | binding result
2 | T19 (ssRNA, 2'-F C and U; 2'-OH A and G) RNA: GGGAGGUGGACGAACUGCCCUCUUUCAUGUUGCUGACGCACAGACGACUCGCUG | no binding
3 | T20 (ssRNA, 2'-F C and U; 2'-OH A and G) RNA: GGGAGGUGGACGAACUGCCCUCUACUUUCAUGUUGACGCACAGACGACUCGCUG | no binding
4 | ACGAACUGCCCUCAGCUACUUUCAUGUUGCUGACGCACAACGU (ssRNA, 2'-F C and U; 2'-OH A and G; 3' idT) [T53] | no binding
5 | ACGAACUGCCCUCAGCUACUUUCAUGUUGCUGACGCACGACGU (ssRNA, 2'-F C and U; 2'-OH A and G; 3' idT) [T54] | no binding
6 | ACGACUGCCCUCAGCUACUUUCAUGUUGCUGACGCACACGU (ssRNA, 2'-F C and U; 2'-OH A and G; 3' idT) [T55] | no binding
7 | ACGAACUGCCCUACGCACAGACGU (ssRNA, 2'-F C and U; 2'-OH A and G; 3' idT) [T56] | no binding
8 | ACGAACUGCCCUCGCGACGCACAGACGU (ssRNA, 2'-F C and U; 2'-OH A and G; 3' idT) [T58] | no binding
9 | ACGAACUGCCCCGCACAGACGU (ssRNA, 2'-F C and U; 2'-OH A and G; 3' idT) [T61] | no binding
10 | ACGAACUCCCUCGAUUAUUCGACGACAGACGU (ssRNA, 2'-F C and U; 2'-OH A and G; 3' idT) [T62] | no binding
11 | ACGAACUGCCCUUUAUACGCACAGACGU (ssRNA, 2'-F C and U; 2'-OH A and G; 3' idT) [T65] | no binding
12 | ACGAACUGCUCGAUUAUUCGAGCACAGACGU (ssRNA, 2'-F C and U; 2'-OH A and G; 3' idT) [T66] | no binding
13 | ACGAACUGCCCUCGAUUAUUCGACCACAGACGU (ssRNA, 2'-F C and U; 2'-OH A and G; 3' idT) [T67] | no binding
14 | T13 (ssRNA, 2'-F C and U; 2'-OH A and G) RNA: GGGAGGUGCCCUCAGCUACUUUCAUGUUGCUGACGCACAGACGACUCGCUG | no binding
15 | GGGAGGUCAGCUACUUUCAUGUUGCUGA (ssRNA, 2'-F C and U; 2'-OH A and G) [T14] | no binding
16 | GGGAGGUGGACGAACUGCCCUACGCACAGACGACUCGCUG (ssRNA, 2'-F C and U; 2'-OH A and G) [T17] | no binding

Target: T1, von Willebrand factor (VWF)
Assay: filter; Bmax 76%; 2 mM CaCl2, 37 C
Details: tags: factor VIII free human purified VWF, Haematologic Technologies Inc; label: 5'-32P
Procedure: as §1

Row | Binder | Kd
17 | ACGAACUGCCCUCUAUUUCAUUUGACGCACAGACGU (ssRNA, 2'-F C9,C10,C11,C26,G27,C28; rest 2'-OMe; 3' idT) [T93 vrt7] | 20 nM
18 | ACGAACUGCCCUCGAUCGACGCACAGACGU (ssRNA, 2'-F C10,C11,C20,C22,U30; ribo G21; rest 2'-OMe; 3' idT) [T59 vrt29] | 19 nM
19 | ACGAACUGCCCUCGAUCGACGCACAGACGUACCCG (ssRNA, 2'-F C2,U7,C9,C10,C11,U12,C20,C22,C28,U30; ribo A1,G3,G8,A19,G21,A23,G29; rest 2'-OMe; 3' idT) [T82 vrt1] | 3.8 nM

Same assay, conditions: tags: factor VIII free, Haematologic Technologies Inc; label: 5'-32P

Row | Binder | Kd
20 | ACGAACUGCCCUCGAUCGACGCACAGACGUACCCG (ssRNA, 2'-F C and U; 2'-OH A and G; 3' idT) [T82] | 5.3 nM
21 | ACGAACUGCCCUCGAUCGACGCACAGACGUACACG (ssRNA, 2'-F C and U; 2'-OH A and G; 3' idT) [T84] | 3.7 nM
22 | ACGAACUGCCCUCUAUUUCAUUUGACGCACAGACGU (ssRNA, 2'-F C and U; 2'-OH A and G; 3' idT) [T93] | 6.4 nM
23 | ACGAACUGCCCUCGAUCGACGCACAGACGU (ssRNA, rAfCrGmAmAmCfUrGfCfCfCfUmCmGmAmUmCmGrAfCrGfCrAmCmAmGmAfCrGfU-idT) [T59 vrt1] | 1.5 nM
24 | ACGAACUGCCCUCGAUCGACGCACAGACGU (ssRNA, rAfCrGmAmAmCfUrGfCfCfCfUmCmGmAmUmCmGrAfCmGfCrAmCmAmGmAfCrGfU-idT) [T59 vrt13] | 29 nM

Target: T1, von Willebrand factor (VWF)
Assay: filter; NB; loop CAGA mutated; 2 mM CaCl2, 37 C
Details: tags: factor VIII free, Haematologic Technologies Inc; label: 5'-32P
Procedure: as §1

Row | Binder | binding result
25 | ACGAACUGCCCUCUUUUUUUUGACGCACCCCCGU (ssRNA, 2'-F C and U; 2'-OH A and G; 3' idT) [T96] | no binding
26 | ACGAACUGCCCUCGUUUCAUCGACGCACCCCCGU (ssRNA, 2'-F C and U; 2'-OH A and G; 3' idT) [T97] | no binding

Target: T1, von Willebrand factor (VWF)
Assay: filter; Bmax 77%; 2 mM CaCl2, 37 C
Details: tags: factor VIII free human purified VWF, Haematologic Technologies Inc; label: 5'-32P
Procedure: as §1

Row | Binder | Kd
27 | ACGAACUGCCCUCGAUCGACGCACAGACGU (ssRNA, 2'-F U7,C9,C10,C11,U12,C20,C22,U30; ribo G21; rest 2'-OMe; 3' idT) [T59 vrt23] | 1.7 nM
28 | ACGAACUGCCCUCGAUCGACGCACAGACGUAAAAA (ssRNA, 2'-F C9,C10,C11,C20,C22; ribo G21; rest 2'-OMe; 3' idT) [T83 vrt4] | 20 nM
29 | ACGAACUGCCCUCGAUCGACGCACAGACGUACACG (ssRNA, 2'-F C9,C10,C11,C20,C22; ribo G21; rest 2'-OMe; 3' idT) [T84 vrt4] | 22 nM

Same assay, conditions: tags: factor VIII free, Haematologic Technologies Inc; label: 5'-32P

Row | Binder | Kd
30 | ACGAACUGCCCUCGUUAUCGACGCACAGACGU (ssRNA, 2'-F C and U; 2'-OH A and G; 3' idT) [T71] | 10 nM
31 | ACGAACUGCCCUCGAUCGACGCACAGACGUAAA (ssRNA, 2'-F C and U; 2'-OH A and G; 3' idT) [T80] | 6.3 nM
32 | ACGAACUGCCCUCUAUUAUUUGACGCACAGACGU (ssRNA, 2'-F C and U; 2'-OH A and G; 3' idT) [T90] | 3.8 nM

Target: T1, von Willebrand factor (VWF)
Assay: filter; Bmax 61%; 2 mM CaCl2, 37 C
Details: tags: factor VIII free, Haematologic Technologies Inc; label: 5'-32P
Procedure: as §1

Row | Binder | Kd
33 | ACGAACUGCCCUCGCUACUUUCAUGUUGCGACGCACAGACGU (ssRNA, 2'-F C and U; 2'-OH A and G; 3' idT) [T34] | 10 nM
34 | ACGAACUGCCCUCGCACUUAUGUGCGACGCACAGACGU (ssRNA, 2'-F C and U; 2'-OH A and G; 3' idT) [T50] | 9.6 nM
35 | ACGAACUGCCCUCGAUCGACGCACAGACGUAAAAA (ssRNA, 2'-F C and U; 2'-OH A and G; 3' idT) [T83] | 3.5 nM
36 | ACGAACUGCCCUCGAUCGACGCACAGACGU (ssRNA, mAmCmGmAmAmCfUmGfCfCfCmUmCmGmAmUmCmGmAfCmGfCmAmCmAmGmAmCmGfU-idT) [T59 vrt5] | 260 nM
37 | ACGAACUGCCCUCGAUCGACGCACAGACGUUUUUU (ssRNA, mAmCmGmAmAmCmUmGfCfCfCmUmCmGmAmUmCmGmAfCfGfCmAmCmAmGmAmCmGfUmUmUmUmUmU-idT) [T79 vrt6] | 60.5 nM

Target: T1, von Willebrand factor (VWF)
Assay: filter; Bmax 85%; 2 mM CaCl2, 37 C
Details: tags: factor VIII free human purified VWF, Haematologic Technologies Inc; label: 5'-32P
Procedure: as §1

Row | Binder | Kd
38 | ACGAACUGCCCUCGAUCGACGCACAGACGU (ssRNA, 2'-F U7,C9,C10,C11,U12,C20,C22,U30; ribo A23; rest 2'-OMe; 3' idT) [T59 vrt21] | 27 nM
39 | ACGAACUGCCCUCGUUUCAUCGACGCACAGACGU (ssRNA, 2'-F C9,C10,C11,C24,G25,C26,U34; rest 2'-OMe; 3' idT) [T86 vrt6] | 52 nM
40 | ACGAACUGCCCUCUUUCAUGACGCACAGACGU (ssRNA, 2'-F C2,U7,C9,C10,C11,U12,C22,C24,C30,U32; ribo A1,G3,G8,A21,G23,A25,G31; rest 2'-OMe; 3' idT) [T87 vrt1] | 1.5 nM
41 | ACGAACUGCCCUCGUAUUAUUUCGACGCACAGACGU (ssRNA, 2'-F C9,C10,C11,C26,C28; ribo G27; rest 2'-OMe; 3' idT) [T89 vrt4] | 8.4 nM
42 | ACGAACUGCCCUCUAUUAUUUGACGCACAGACGU (ssRNA, 2'-F C9,C10,C11,C24,C26; ribo G25; rest 2'-OMe; 3' idT) [T90 vrt4] | 10.2 nM

Same assay, conditions: tags: factor VIII free, Haematologic Technologies Inc; label: 5'-32P

Row | Binder | Kd
43 | ACGAACUGCCCUCGAUCGACGCACAGACGU (ssRNA, rAfCrGmAmAmCfUrGfCfCfCfUmCmGmAmUmCmGrAfCrGfCmAmCmAmGmAfCrGfU-idT) [T59 vrt12] | 6.9 nM
